Source: US20260008847A1 (ELPISCIENCE SUZHOU BIOPHARMA, published 2026)
Where two headings read alike, the source gives them in different places.

Columns and labels:
[1] = molecular target: T1, 6×His-tagged human LILRB2 ECD recombinant protein (human, UniProt Q8N423 22-458, limits assumed); assay: Octet, 1:1 model
T1 construct: Bought protein; not shown: 6×His-tag

[2] = molecular target: T2, Cell membrane human LILRB2 on human primary monocytes from healthy donors (human, UniProt Q8N423 22-597); assay: cell-based or functional assay
T2 sequence (Q8N423 22-597): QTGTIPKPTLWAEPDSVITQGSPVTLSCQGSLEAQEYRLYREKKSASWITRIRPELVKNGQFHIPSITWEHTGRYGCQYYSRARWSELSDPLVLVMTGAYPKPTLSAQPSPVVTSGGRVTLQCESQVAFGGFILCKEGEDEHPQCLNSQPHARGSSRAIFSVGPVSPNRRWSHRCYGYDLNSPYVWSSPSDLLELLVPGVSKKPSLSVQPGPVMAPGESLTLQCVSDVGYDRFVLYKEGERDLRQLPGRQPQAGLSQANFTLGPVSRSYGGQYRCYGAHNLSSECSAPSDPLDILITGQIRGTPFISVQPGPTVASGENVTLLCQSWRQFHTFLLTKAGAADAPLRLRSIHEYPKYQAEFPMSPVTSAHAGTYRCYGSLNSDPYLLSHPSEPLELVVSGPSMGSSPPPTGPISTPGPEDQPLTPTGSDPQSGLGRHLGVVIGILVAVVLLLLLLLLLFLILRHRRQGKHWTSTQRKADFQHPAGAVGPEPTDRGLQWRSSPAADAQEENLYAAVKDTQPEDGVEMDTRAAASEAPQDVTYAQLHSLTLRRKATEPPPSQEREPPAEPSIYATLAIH

[3] = molecular target: T3, Human LILRB2 stably expressed on EL4 cells (EL4/LILRB2) (human, UniProt Q8N423 22-597); assay: FACS on EL4/LILRB2 cells
T3 construct: also called EL4-LILRB2 cells; cell membrane human LILRB2
T3 sequence (Q8N423 22-597 limits assumed): as the sequence (Q8N423 22-597) above

[4] = molecular target: T3, Human LILRB2 stably expressed on EL4 …; assay: FACS on EL4/LILRB2 cells; remark: listed apart in the source
[5] = molecular target: T2, Cell membrane human LILRB2 on human …; assay: FACS on human primary monocytes, Donor #1045
[6] = molecular target: T2, Cell membrane human LILRB2 on human …; assay: FACS on human primary monocytes, Donor #6004
[7] = molecular target: T3, Human LILRB2 stably expressed on EL4 …; assay: competitive FACS, blockade of HLA-G binding to LILRB2 on cells
Protocol: (§1) The blocking activities were determined by quantitating the blockade of the ligands binding to EL4/LILRB2 cells.

[8] = molecular target: T3, Human LILRB2 stably expressed on EL4 …; assay: competitive FACS on EL4/LILRB2 cells, blockade of HLA-A2 binding
Protocol: as §1

[9] = molecular target: T4, Human LILRA1 ECD recombinant protein with 6×His-tag (human, UniProt O75019 17-461); assay: ELISA: plate coated with LILRA1 ECD recombinant protein
T4 construct: range 1-461; Bought protein; not shown: 6×His-tag
T4 sequence (O75019 17-461 limits assumed): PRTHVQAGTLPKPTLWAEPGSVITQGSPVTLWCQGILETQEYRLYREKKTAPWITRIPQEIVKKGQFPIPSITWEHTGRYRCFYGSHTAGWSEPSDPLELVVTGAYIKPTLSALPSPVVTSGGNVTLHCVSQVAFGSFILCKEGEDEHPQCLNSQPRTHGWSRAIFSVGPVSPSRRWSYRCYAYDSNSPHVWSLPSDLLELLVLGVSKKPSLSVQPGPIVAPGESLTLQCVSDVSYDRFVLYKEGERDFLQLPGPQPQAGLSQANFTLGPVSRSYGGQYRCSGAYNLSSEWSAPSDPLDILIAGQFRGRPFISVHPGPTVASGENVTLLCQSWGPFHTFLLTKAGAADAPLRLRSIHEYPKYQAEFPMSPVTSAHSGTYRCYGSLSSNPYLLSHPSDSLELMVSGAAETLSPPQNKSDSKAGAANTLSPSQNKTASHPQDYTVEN

[10] = molecular target: T1, 6×His-tagged human LILRB2 ECD …; assay: Octet, 1:1 model; column printed as 'kd (1/s)', heads of c4 and c5 are swapped
[11] = molecular target: T5, Human LILRA2 ECD recombinant protein with His-tag (human, UniProt Q8N149 24-449); assay: ELISA: plate coated with LILRA2 ECD recombinant protein [continued) B]
T5 construct: range 24-449; Bought protein; not shown: His-tag
T5 sequence (Q8N149 24-449 limits assumed): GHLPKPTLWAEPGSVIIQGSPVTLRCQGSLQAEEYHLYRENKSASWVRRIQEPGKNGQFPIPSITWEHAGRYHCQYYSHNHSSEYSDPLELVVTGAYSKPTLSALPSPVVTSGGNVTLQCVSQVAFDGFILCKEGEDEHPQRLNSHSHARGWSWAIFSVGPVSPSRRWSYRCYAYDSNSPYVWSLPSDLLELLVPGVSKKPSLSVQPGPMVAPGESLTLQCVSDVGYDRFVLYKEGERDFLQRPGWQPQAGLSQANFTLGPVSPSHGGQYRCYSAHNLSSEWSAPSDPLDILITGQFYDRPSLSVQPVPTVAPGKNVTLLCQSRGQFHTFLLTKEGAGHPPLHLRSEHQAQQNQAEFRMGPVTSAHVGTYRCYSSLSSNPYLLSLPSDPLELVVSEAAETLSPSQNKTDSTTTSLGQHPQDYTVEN

[12] = molecular target: T1, 6×His-tagged human LILRB2 ECD …; assay: Octet, 1:1 model; column printed as 'ka (1/Ms)', heads of c4 and c5 are swapped
[13] = molecular target: T4, Human LILRA1 ECD recombinant protein …; assay: ELISA: plate coated with LILRA1 ECD recombinant protein, antibody at 0.5 ug/mL (method of example 3.2.1); mean OD450 printed over the bar
Protocol: (§2) Briefly, 0.5 μg/mL anti-LILRB2 antibodies were incubated in human LILRB2 ECD recombinant protein-coated ELISA plate at 37° C. for 1 hour. After washing, horseradish peroxidase (HRP) labeled detection antibody was added and incubated at 37° C. for 1 hour. Color development was conducted by the addition of 100 μl/well of TMB (3,3′,5,5′-Tetramethylbenzidine) solution. After incubation at room temperature (RT) for 10-15 minutes, the reaction was stopped by adding 100 μl 1N HCl. Then the plates were read immediately using plate reader for optical density at 450 nm.

[14] = molecular target: Human LILRB4 ECD recombinant protein with 6×His-tag (human) (UniProt Q8NHJ6); assay: ELISA: plate coated with LILRB4 ECD recombinant protein, antibody at 0.5 ug/mL (method of example 3.2.1); mean OD450 printed over the bar [continued) H]
[15] = molecular target: T5, Human LILRA2 ECD recombinant protein …; assay: ELISA: plate coated with LILRA2 ECD recombinant protein, antibody at 0.5 ug/mL (method of example 3.2.1); mean OD450 printed over the bar [continued) B]
Protocol: as §2

[16] = molecular target: T6, Human LILRA3 ECD recombinant protein with 6×His-tag (human, UniProt Q8N6C8 24-439); assay: ELISA: plate coated with LILRA3 ECD recombinant protein, antibody at 0.5 ug/mL (method of example 3.2.1); mean OD450 printed over the bar [continued) C]
T6 construct: range 1-439; Bought protein; not shown: 6×His-tag
T6 sequence (Q8N6C8 24-439 limits assumed, form in doubt): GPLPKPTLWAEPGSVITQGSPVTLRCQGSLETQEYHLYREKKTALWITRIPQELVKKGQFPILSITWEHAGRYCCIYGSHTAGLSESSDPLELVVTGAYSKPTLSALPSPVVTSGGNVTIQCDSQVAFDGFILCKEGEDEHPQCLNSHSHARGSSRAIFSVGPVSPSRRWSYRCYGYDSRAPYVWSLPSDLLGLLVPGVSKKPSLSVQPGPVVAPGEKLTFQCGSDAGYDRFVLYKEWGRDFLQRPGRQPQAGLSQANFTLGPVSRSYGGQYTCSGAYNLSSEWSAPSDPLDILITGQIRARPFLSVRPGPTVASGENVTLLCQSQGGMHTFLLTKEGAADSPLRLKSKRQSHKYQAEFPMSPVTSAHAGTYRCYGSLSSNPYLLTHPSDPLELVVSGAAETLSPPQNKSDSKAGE

[17] = molecular target: T7, Human LILRB3 ECD recombinant protein with 6×His-tag (human, UniProt O75022 24-443); assay: ELISA: plate coated with LILRB3 ECD recombinant protein, antibody at 0.5 ug/mL (method of example 3.2.1); mean OD450 printed over the bar [continued) G]
T7 construct: range 1-443; Bought protein; not shown: 6×His-tag

[18] = molecular target: T3, Human LILRB2 stably expressed on EL4 …; assay: Competitive FACS: EL4/LILRB2 cells preincubated with 10 ug/mL antibody, then ANGPTL2 added; inhibition of the ligand's binding to the cells [panel ANGPTL2]
Protocol: as §1

T1 sequence (Q8N423 22-458 limits assumed): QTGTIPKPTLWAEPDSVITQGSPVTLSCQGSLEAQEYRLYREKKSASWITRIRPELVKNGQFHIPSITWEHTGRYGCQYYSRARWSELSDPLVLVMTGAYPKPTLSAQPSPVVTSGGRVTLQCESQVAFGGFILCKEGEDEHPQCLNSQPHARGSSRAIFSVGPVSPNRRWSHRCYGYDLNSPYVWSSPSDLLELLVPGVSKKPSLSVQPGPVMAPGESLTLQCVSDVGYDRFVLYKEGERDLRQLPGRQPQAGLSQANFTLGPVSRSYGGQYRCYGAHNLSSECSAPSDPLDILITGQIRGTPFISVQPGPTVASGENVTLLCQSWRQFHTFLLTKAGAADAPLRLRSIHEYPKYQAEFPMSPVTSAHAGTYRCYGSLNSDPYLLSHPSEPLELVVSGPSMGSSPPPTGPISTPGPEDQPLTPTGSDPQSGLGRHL

B1: 043c (antibody, V domains shown)
VH: QVQLQQSGAELAKPGASVKLSCKASGYTFTSYWMYWVKQRPGQGLEWIGHINPSSGYTKYNQKFKDKATLTADKSSSTAYMQLSSLTYEDSAVYYCARDPNWDNYWGQGTTLTVSS
VL: DIVMTQSHKFMSTSVGDRVSITCKASQDVSIAVAWYQQKPGQSPKLLIYSASYRYTGVPDRFTGSGSGTDFTFTISSVQAEDLAVYYCQQHYSTPYTFGGGTKLEIK
notes: Human IgG4 chimeric antibody with S228P mutation at the Fc region; also called chimeric antibody 043c; parental antibody 043c
Kd [1]: 2.4 nM | Relative cytokine level, CCL2/JE/MCP-1 (DC differentiation assay, Soluble antibody, Luminex) [2]: 2.36 fold of hIgG4 iso | Relative cytokine level, CCL3/MIP-1 alpha (DC differentiation assay, Pre-coat antibody, Luminex) [2]: > 5 fold of hIgG4 iso | Relative cytokine level, CCL3/MIP-1 alpha (DC differentiation assay, Soluble antibody, Luminex) [2]: 5.79 fold of hIgG4 iso | Relative cytokine level, CCL20/MIP-3 alpha (DC differentiation assay, Pre-coat antibody, Luminex) [2]: 1.75 fold of hIgG4 iso | Relative cytokine level, CCL20/MIP-3 alpha (DC differentiation assay, Soluble antibody, Luminex) [2]: 1.88 fold of hIgG4 iso | Relative cytokine level, CCL22/MDC (DC differentiation assay, Pre-coat antibody, Luminex) [2]: 2.61 fold of hIgG4 iso | Relative cytokine level, CCL22/MDC (DC differentiation assay, Soluble antibody, Luminex) [2]: 2.03 fold of hIgG4 iso | Relative cytokine level, CCL23/MPIF-1 (DC differentiation assay, Pre-coat antibody, Luminex) [2]: 0.48 fold of hIgG4 iso | Relative cytokine level, CCL23/MPIF-1 (DC differentiation assay, Soluble antibody, Luminex) [2]: 0.73 fold of hIgG4 iso | Relative cytokine level, IFN-beta (DC differentiation assay, Pre-coat antibody, Luminex) [2]: 3.39 fold of hIgG4 iso | Relative cytokine level, IFN-beta (DC differentiation assay, Soluble antibody, Luminex) [2]: 7.24 fold of hIgG4 iso | Relative cytokine level, IL6 (DC differentiation assay, Soluble antibody, Luminex) [2]: 1.93 fold of hIgG4 iso | Relative cytokine level, IL-1 alpha/IL-1F1 (DC differentiation assay, Pre-coat antibody, Luminex) [2]: 1.71 fold of hIgG4 iso | Relative cytokine level, IL-1 alpha/IL-1F1 (DC differentiation assay, Soluble antibody, Luminex) [2]: 1.71 fold of hIgG4 iso | Relative cytokine level, IL-6 (DC differentiation assay, Pre-coat antibody, Luminex) [2]: 1.61 fold of hIgG4 iso | Relative cytokine level, IL-8/CXCL8 (DC differentiation assay, Soluble antibody, Luminex) [2]: 1.65 fold of hIgG4 iso | Relative cytokine level, IL-10 (DC differentiation assay, Pre-coat antibody, Luminex) [2]: 2.16 fold of hIgG4 iso | Relative cytokine level, IL-10 (DC differentiation assay, Soluble antibody, Luminex) [2]: 1.69 fold of hIgG4 iso | Relative cytokine level, TNFα (DC differentiation assay, Pre-coat antibody, Luminex) [2]: 5.38 fold of hIgG4 iso | Relative cytokine level, TNFα (DC differentiation assay, Soluble antibody, Luminex) [2]: 4.71 fold of hIgG4 iso | Relative cytokine level, VEGF (DC differentiation assay, Pre-coat antibody, Luminex) [2]: 1.67 fold of hIgG4 iso | Relative cytokine level, VEGF (DC differentiation assay, Soluble antibody, Luminex) [2]: 1.43 fold of hIgG4 iso | EC50 [3]: 0.73 nM | EC50 [4]: 0.45 nM | TOP MFI [4]: 45300 MFI | EC50 [5]: 0.32 nM | EC50 [6]: 0.29 nM | IC50 [7]: 0.11 nM | TOP Blocking (%) [7]: 100% | IC50 [8]: 0.48 nM | binding result [9]: no binding (tested: 0.5 ug/mL) | kon [10]: 494000 M⁻¹ s⁻¹ | binding result [11]: no binding (tested: 0.5 ug/mL) | koff [12]: 0.00119 s⁻¹ | OD450 [13]: 0.15 | OD450 [14]: 0.11 | OD450 [15]: 0.08 | OD450 [16]: 0.09 | OD450 [17]: 0.08 | Inhibition (%) [18]: 93%

B2: J-19 (antibody, V domains shown)
VH: QVTLKESGPGILQPSHTLSLTCSFSGFSLNTYAMGVSWIRQPSGKGLEWLASIWWNGNKYNNPSLKSRLTVSKDTSNNQAFLKVTSVDTADTATYYCAHSRIIRFTDYVMDAWGQGASVTVSS
VL: DIQMTQSPASLSTFLGEPVTIECRASEDIYNDLAWYQQKPGKSPQLLIYNANSLHTGVPSRFSGSGSGTQYSLKINSLQSEDVASYFCQQYYDYPLTFGSGTKLEIK
notes: Human IgG4 monoclonal antibody with S228P in the constant region, made according to WO 2019/126514 A2; also called benchmark antibody J-19
IC50 [7]: 0.07 nM | TOP Blocking (%) [7]: 100% | binding result [9]: no binding (tested: 0.5 ug/mL) | binding result [11]: no binding (tested: 0.5 ug/mL) | OD450 [13]: 0.16 | OD450 [14]: 0.14 | OD450 [15]: 0.08 | OD450 [16]: 0.08 | OD450 [17]: 0.09 | Inhibition (%) [18]: 97%

B3: 1E1 (antibody, V domains shown)
VH: QVQLQQWGAGLLKPSETLSLTCAVYGGSFSGYYWSWIRQPPGKGLEWIGEINHSGSTNYNPSLKSRVTISVDTSKNQFSLKLSSVTAADTAVYYCARLPTRWVTTRYFDLWGRGTLVTVSS
VL: QSVLTQPPSVSGAPGQRVTISCTGSSSNIGAGYDVHWYQQLPGTAPKLLIYGNSNRPSGVPDRFSVSKSGASASLAITGLQAEDEADYYCQSFDNSLSAYVFGGGTQLTVL
notes: Human IgG4 monoclonal antibody with S228P in the constant region, made according to US 2018/0298096 A1; also called benchmark antibody 1E1
EC50 [5]: 0.84 nM | EC50 [6]: 0.91 nM | binding result [9]: no binding (tested: 0.5 ug/mL) | binding result [11]: no binding (tested: 0.5 ug/mL) | OD450 [13]: 0.15 | OD450 [14]: 0.1 | OD450 [15]: 0.07 | OD450 [16]: 0.07 | OD450 [17]: 0.07 | Inhibition (%) [18]: 94%
